Drawing on patent US20120316107A1 (CASE WESTERN RESERVE UNIVERSITY, published 2012), this text covers Kd for 2 molecules.

Assay [1] addresses T1, Insulin-like Growth Factor receptor (UniProt P08069 31-1367, limits assumed).
T1 construct: Captured on antibody-coated microtiter plates; the construct is not described; also called IGFR; IGF Type I receptor
Briefly: competitive displacement of 125I-IGF-1 from IGFR.

For assay [2], the target named is T1, Insulin-like Growth Factor receptor. Briefly: competitive displacement of labelled ligand, receptor captured on anti-FLAG IgG plate, two-site sequential model. As to the method:
DNA for transfection was prepared according to the method of Mynarcik et al. (J. Biol. Chem., 1997, 272, pp 18650-18655). The receptor cDNAs were expressed transiently in PEAK rapid cells using polyethyleneimine. Cells were harvested by lysis in 0.15M NaCl and 0.1M Tris (pH 8) containing 1% (v/v) Triton X-100 and protease inhibitor cocktail three days post-transfection. Lysates were stored at −80° C. until assay. Receptor-binding assays were performed as described by Mynarcik. Microtiter strip plates (Nunc Maxisorb) were incubated overnight at 4° C. with anti-FLAG IgG ([…] in PBS). Washing, blocking, receptor binding and competitive binding assays with labeled and unlabeled peptides were performed as described.

Where no end group is shown, it is not given here.

B1: single chain insulin (SCI) that is wild type at position B10 (His^A8, Asp^B28, Pro^B29) (ligand)
chain: FVNQHLCGSHLVEALYLVCGERGFFYTDPTGGGPRRGIVEQCCHSICSLYQLENYCN
notes: also called A8-His, B28-Asp, B29-Pro SCI; SCI not containing the Asp^B10 substitution
On to B1, for which the Kd in assay [1] and in assay [2] was 27.6 nM throughout.

B2: 57 mer single-chain insulin analogue (His^A8, Asp^B10, Asp^B28, Pro^B29; GGGPRR linker) (ligand)
chain: FVNQHLCGSDLVEALYLVCGERGFFYTDPTGGGPRRGIVEQCCHSICSLYQLENYCN
modifications: ends and bridges not checked; cysteine pairing not given here
notes: also called 57mer single-chain analogue; 57-mer single-chain Analog
Molecule B2 showed a Kd in assay [2] of 9.89 nM. In other words, the single-digit nanomolar range.

The term Kd denotes the equilibrium constant for the complex coming apart. Low values mean tighter binding, high ones weaker binding.
